What was measured:
[1] = Screening of amount of pH regulator: dissolution in intermediate solutions; format: physicochemical; conditions: 0.5% sodium citrate solution after mannitol was added and CR19213 was dissolved
Protocol: The solubility of CR19213 is related to the pH value of a solution, and the amount of the pH regulator (expressed as the concentration of a buffer salt) directly influences the pH value of the solution. Therefore, the concentration of the buffer salt needs to be screened. Since CR19213 was added to the sodium citrate solution with pH 7.0, and completely dissolved to form an acidic solution, a 1.0% sodium citrate solution (11.4 mg/mL) with pH 7.5 (regulated with citric acid) was prepared in order to make the finished product be more near-neutral, and diluted with water to obtain sodium citrate solutions at concentrations of 0.1%, 0.25%, and 0.5%, respectively. Intermediate solutions were prepared using the above-mentioned sodium citrate solutions with different concentrations. The dissolution in the intermediate solutions during the preparation were investigated.
(1) a 1.0% sodium citrate solution with pH 7.5 (regulated with citric acid) was prepared for later use;
(2) dilution was carried out with water to obtain 0.1%, 0.25% and 0.5% sodium citrate solutions, respectively;
(3) a prescribed amount of mannitol was weighed, 70% of the total amount of the sodium citrate solution was added, stirring was carried out for dissolution, then a prescribed amount of CR19213 was added, and stirring was carried out for dissolution in a dark place at room temperature; and […]

[2] = Stated solubility and sensitivity of CR19213

Structure (SMILES): CCC(C)C(C(CC(=O)N1CCCC1C(OC)C(C)C(=O)NC(C)C(O)c1ccccc1)OC)N(C)C(=O)C(NC(=O)C(C(C)C)N(C)C(=O)OCc1ccc(NC(=O)C(CCCNC(N)=O)NC(=O)C(NC(=O)CCCCCN2C(=O)CC(SCC(NC(=O)C(CCCCN)NC(=O)C(CC(=O)O)NC(=O)C(CC(=O)O)NC(=O)Cc3ccc(CNC(=O)NCCCCC(NC(=O)NC(CCC(=O)O)C(=O)O)C(=O)O)cc3)C(=O)NC(CCCCNC(=O)CCC(NC(=O)c3ccc(NCc4cnc5[nH]c(N)nc(=O)c5n4)cc3)C(=O)O)C(N)=O)C2=O)C(C)C)cc1)C(C)C (stereo not drawn) [CR19213]
- pH value [1]: 5.95
- Oxidation in solution [2]: easily oxidized
- Sensitivity to temperature [2]: sensitive
- Solubility in water [2]: poorly soluble
- Stability to acids and alkalis [2]: unstable
- Sensitivity to illumination ([2]; raw material): sensitive

— patent US20240424106A1, “CONJUGATE PHARMACEUTICAL PREPARATION, PREPARATION METHOD THEREFOR AND USE THEREOF” (COHERENT BIOPHARMA (SUZHOU) LIMITED, priority 2021, published 2024)
